Results: patent US20220195043A1 (BEIJING MABWORKS BIOTECH, published 2022)
Where two headings read alike, the source gives them in different places.

T1: human CD20 (HEK293A/human CD20 cells) (human, UniProt P11836 1-297)
T1 sequence: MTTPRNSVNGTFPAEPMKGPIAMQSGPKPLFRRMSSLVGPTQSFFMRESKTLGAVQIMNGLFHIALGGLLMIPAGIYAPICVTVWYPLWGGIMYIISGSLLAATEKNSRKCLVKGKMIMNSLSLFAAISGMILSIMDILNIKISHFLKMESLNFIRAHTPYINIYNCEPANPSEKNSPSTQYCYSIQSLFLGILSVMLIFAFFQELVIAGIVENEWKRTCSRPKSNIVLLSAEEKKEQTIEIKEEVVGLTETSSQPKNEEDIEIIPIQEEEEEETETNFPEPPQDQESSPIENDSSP

T2: monkey CD20 (HEK293A/monkey CD20 cells) (monkey, UniProt P11836 1-297 (human entry))
T2 construct: Stably expressed on HEK293A cells; also called cynomolgus CD20
T2 chain: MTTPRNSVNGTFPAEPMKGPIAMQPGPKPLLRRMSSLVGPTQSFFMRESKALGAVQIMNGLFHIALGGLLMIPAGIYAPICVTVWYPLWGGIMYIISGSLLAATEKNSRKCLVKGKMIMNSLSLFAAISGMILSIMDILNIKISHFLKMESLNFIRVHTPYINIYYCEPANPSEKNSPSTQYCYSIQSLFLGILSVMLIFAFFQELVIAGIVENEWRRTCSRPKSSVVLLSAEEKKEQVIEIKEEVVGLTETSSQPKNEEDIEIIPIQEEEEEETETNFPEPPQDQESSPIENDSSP

T3: monkey CD3ε-his (Cat #: 90047-C08H, SinoBiological, China) (monkey, UniProt Q95LI5 22-117)
T3 construct: Bought protein; also called monkey CD3ε protein; recombinant monkey CD3ε
T3 sequence: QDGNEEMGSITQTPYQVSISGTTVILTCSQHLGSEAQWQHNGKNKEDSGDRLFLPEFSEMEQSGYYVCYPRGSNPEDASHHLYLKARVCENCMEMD


Tests used:
[1] = target: T1, human CD20 (HEK293A/human CD20 cells); assay: cell-based or functional assay
[2] = target: T4, human CD3ε-his (Cat #:10977-H08s, SinoBiological, China) (human, UniProt P07766 23-126); assay: SPR (BIAcore 8K); human CD3ε-his coupled to CM5 chip, antibody injected
T4 construct: Bought protein; also called human CD3ε protein; recombinant human CD3ε; not shown: his tag

[3] = target: T1, human CD20 (HEK293A/human CD20 cells); assay: FACS on HEK293A/human CD20 cells, PE anti-human IgG secondary antibody, MFI
[4] = target: T2, monkey CD20 (HEK293A/monkey CD20 cells); assay: FACS on HEK293A/monkey CD20 (CynoCD20) cells, PE anti-human IgG secondary antibody, MFI
[5] = target: T4, human CD3ε-his (Cat #:10977-H08s, …); assay: ELISA: plate coated with human CD3ε-his (hCD3ε-his), antibody titrated, HRP goat anti-human IgG, OD450
[6] = target: T5, human TCR/CD3 complex on cell surfaces (primary human CD4+ T cells; Jurkat cells; human PBMCs) (human, UniProt P07766 23-207); assay: FACS on primary human CD4+ T cells, PE goat anti-human IgG, MFI
T5 construct: whole, on cells; Native complex on cells; the γ, δ, ζ and TCR chains of the complex are present on the cells too; also called human CD3 complexes on cell surfaces; human CD3+ T cells

[7] = target: T4, human CD3ε-his (Cat #:10977-H08s, …); assay: SPR (BIAcore 8K); human CD3ε-his coupled to CM5 chip, antibody injected; remark: listed apart in the source
[8] = target: T4, human CD3ε-his (Cat #:10977-H08s, …); assay: ELISA: plate coated with human CD3ε-his, antibody titrated, HRP goat anti-human IgG, OD 450
[9] = target: T4, human CD3ε-his (Cat #:10977-H08s, …); assay: as above; remark: listed apart in the source
[10] = target: T3, monkey CD3ε-his (Cat #: 90047-C08H, …); assay: ELISA: plate coated with monkey CD3ε-his, antibody titrated, HRP goat anti-human IgG, OD 450
[11] = target: T3, monkey CD3ε-his (Cat #: 90047-C08H, …); assay: as above; remark: listed apart in the source

T4 sequence (P07766 23-126 limits assumed): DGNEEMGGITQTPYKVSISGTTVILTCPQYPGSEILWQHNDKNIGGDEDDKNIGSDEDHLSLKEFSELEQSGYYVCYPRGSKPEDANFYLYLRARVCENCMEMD
T5 sequence (P07766 23-207, one chain of several): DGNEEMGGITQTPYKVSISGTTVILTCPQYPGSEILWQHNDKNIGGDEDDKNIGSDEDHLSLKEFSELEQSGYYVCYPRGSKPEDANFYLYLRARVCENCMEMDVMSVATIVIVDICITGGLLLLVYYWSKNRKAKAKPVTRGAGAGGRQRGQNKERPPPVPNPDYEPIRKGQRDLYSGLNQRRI

| Binder | EC50 of killing of HEK293A/hCD20 cells by T cells, MBS303-2 alone [1] [µg/mL] | EC50 of killing of HEK293A/hCD20 cells by T cells, MBS303-2 with 1 µg/ml MIL62 [1] [µg/mL] | Kd [2] [nM] | EC50 (read off the curve) [3] [µg/mL] | EC50 (read off the curve) [4] [µg/mL] | EC50 (read off the curve) [5] [µg/mL] | EC50 (read off the curve) [6] [µg/mL] | kon [7] [M⁻¹ s⁻¹] | EC50 (read off the curve) [8] [µg/mL] | EC50 (read off the curve) [9] [µg/mL] | EC50 (read off the curve) [10] [µg/mL] | EC50 (read off the curve) [11] [µg/mL] |
| --- | --- | --- | --- | --- | --- | --- | --- | --- | --- | --- | --- | --- |
| MBS303-2 (bispecific antibody against CD3 and CD20, MIL220 + MIL221-2) (bispecific antibody, human IgG1, kappa, lambda, L234A L235A, N297A, CD20:CD3 = 2:1) heavy 1: QVQLVQSGAEVKKPGSSVKVSCKASGYAFSYSWINWVRQAPGQGLEWMGRIFPGDGDTDYNGKFKGRVTITADKSTSTAYMELSSLRSEDTAVYYCARNVFDGYWLVYWGQGTLVTVSSASTKGPSVFPLAPSSKSTSGGTAALGCLVKDYFPEPVTVSWNSGALTSGVHTFPAVLQSSGLYSLSSVVTVPSSSLGTQTYICNVNHKPSNTKVDKKVEPKSCDKTHTCPPCPAPEAAGGPSVFLFPPKPKDTLMISRTPEVTCVVVDVSHEDPEVKFNWYVDGVEVHNAKTKPREEQYASTYRVVSVLTVLHQDWLNGKEYKCKVSNKALPAPIEKTISKAKGQPREPQVYTLPPSREEMTKNQVSLSCAVKGFYPSDIAVEWESNGQPENNYKTTPPVLDSDGSFFLVSKLTVDKSRWQQGNVFSCSVMHEALHNHYTQKSLSLSPGK light 1: DIVMTQTPLSLPVTPGEPASISCRSSKSLLHSNGITYLYWYLQKPGQSPQLLIYQMSNLVSGVPDRFSGSGSGTDFTLKISRVEAEDVGVYYCAQNLELPYTFGGGTKVEIKRTVAAPSVFIFPPSDEQLKSGTASVVCLLNNFYPREAKVQWKVDNALQSGNSQESVTEQDSKDSTYSLSSTLTLSKADYEKHKVYACEVTHQGLSSPVTKSFNRGEC heavy 2: QVQLVQSGAEVKKPGSSVKVSCKASGYAFSYSWINWVRQAPGQGLEWMGRIFPGDGDTDYNGKFKGRVTITADKSTSTAYMELSSLRSEDTAVYYCARNVFDGYWLVYWGQGTLVTVSSGGGGSGGGGSGGGGSDIVMTQTPLSLPVTPGEPASISCRSSKSLLHSNGITYLYWYLQKPGQSPQLLIYQMSNLVSGVPDRFSGSGSGTDFTLKISRVEAEDVGVYYCAQNLELPYTFGGGTKVEIKGGGGSGGGGSGGGGSEVQLLESGGGLVQPGGSLRLSCAASGFTFNTYAMNWVRQAPGKGLEWVARIRSKYNNYATYYAISVKDRFTISRDDSKNTLYLQMNSLRAEDTAMYYCVRHGNFGNSYLSYWAYWGQGTLVTVSSASTKGPSVFPLAPSSKSTSGGTAALGCLVKDYFPEPVTVSWNSGALTSGVHTFPAVLQSSGLYSLSSVVTVPSSSLGTQTYICNVNHKPSNTKVDKKVEPKSCDKTHTCPPCPAPEAAGGPSVFLFPPKPKDTLMISRTPEVTCVVVDVSHEDPEVKFNWYVDGVEVHNAKTKPREEQYASTYRVVSVLTVLHQDWLNGKEYKCKVSNKALPAPIEKTISKAKGQPREPQVYTLPPSREEMTKNQVSLWCLVKGFYPSDIAVEWESNGQPENNYKTTPPVLDSDGSFFLYSKLTVDKSRWQQGNVFSCSVMHEALHNHYTQKSLSLSPGK light 2: QAVVTQEPSLTVSPGGTVTLTCQSSTGAVTTNNYANWVQQKPGHAFRGLIGGTKQRAPGVPARFSGSLLGGKAALTLSGVQPEDEAEYYCVLWYSNLWVFGGGTKLTVLGQPKAAPSVTLFPPSSEELQANKATLVCLISDFYPGAVTVAWKADSSPVKAGVETTTPSKQSNNKYAASSYLSLTPEQWKSHRSYSCQVTHEGSTVEKTVAPT | 0.0098 | 0.0039 | 1.79 | ~0.03 | ~0.06 | ~0.06 | – | – | – | – | – | – |
| chimeric anti-CD3 antibody CD3-19 (full length, human IgG1) (antibody, V domains shown, also called chimeric CD3-19 antibody; parent antibody) VH: EVKLLESGGGLVQPKGSLKLSCAASGFTFNSYAMNWVRQAPGKGLEWVARIRSKYNNYATYYADSVKDRFTISRDDSQSILYLQMNNLKTEDTAMYYCVRHGNFGNSYLSYWAYWGQGTLVTVSA VL: QAVVTQESALTTSPGETVTLTCDSSTGAVTTSNYANWVQEKPDHLFTGLIGGTQRSAPGVPARFSGSLIGDKAALTITGAQTEDEAIYFCVLWYSNLWVFGGGTKLTVLG | – | – | – | – | – | – | ~0.7 | 119000 | ~0.05 | ~0.05 | ~0.05 | ~0.06 |
